Target: VEGFR-1 expressed in rat cavernous smooth muscle cells (CSMC) (rat) (UniProt P53767)
Experiment: cell-based or functional assay

VEGFR-1 expressed in rat cavernous smooth muscle cells (CSMC) (rat), sequence (P53767 23-1336): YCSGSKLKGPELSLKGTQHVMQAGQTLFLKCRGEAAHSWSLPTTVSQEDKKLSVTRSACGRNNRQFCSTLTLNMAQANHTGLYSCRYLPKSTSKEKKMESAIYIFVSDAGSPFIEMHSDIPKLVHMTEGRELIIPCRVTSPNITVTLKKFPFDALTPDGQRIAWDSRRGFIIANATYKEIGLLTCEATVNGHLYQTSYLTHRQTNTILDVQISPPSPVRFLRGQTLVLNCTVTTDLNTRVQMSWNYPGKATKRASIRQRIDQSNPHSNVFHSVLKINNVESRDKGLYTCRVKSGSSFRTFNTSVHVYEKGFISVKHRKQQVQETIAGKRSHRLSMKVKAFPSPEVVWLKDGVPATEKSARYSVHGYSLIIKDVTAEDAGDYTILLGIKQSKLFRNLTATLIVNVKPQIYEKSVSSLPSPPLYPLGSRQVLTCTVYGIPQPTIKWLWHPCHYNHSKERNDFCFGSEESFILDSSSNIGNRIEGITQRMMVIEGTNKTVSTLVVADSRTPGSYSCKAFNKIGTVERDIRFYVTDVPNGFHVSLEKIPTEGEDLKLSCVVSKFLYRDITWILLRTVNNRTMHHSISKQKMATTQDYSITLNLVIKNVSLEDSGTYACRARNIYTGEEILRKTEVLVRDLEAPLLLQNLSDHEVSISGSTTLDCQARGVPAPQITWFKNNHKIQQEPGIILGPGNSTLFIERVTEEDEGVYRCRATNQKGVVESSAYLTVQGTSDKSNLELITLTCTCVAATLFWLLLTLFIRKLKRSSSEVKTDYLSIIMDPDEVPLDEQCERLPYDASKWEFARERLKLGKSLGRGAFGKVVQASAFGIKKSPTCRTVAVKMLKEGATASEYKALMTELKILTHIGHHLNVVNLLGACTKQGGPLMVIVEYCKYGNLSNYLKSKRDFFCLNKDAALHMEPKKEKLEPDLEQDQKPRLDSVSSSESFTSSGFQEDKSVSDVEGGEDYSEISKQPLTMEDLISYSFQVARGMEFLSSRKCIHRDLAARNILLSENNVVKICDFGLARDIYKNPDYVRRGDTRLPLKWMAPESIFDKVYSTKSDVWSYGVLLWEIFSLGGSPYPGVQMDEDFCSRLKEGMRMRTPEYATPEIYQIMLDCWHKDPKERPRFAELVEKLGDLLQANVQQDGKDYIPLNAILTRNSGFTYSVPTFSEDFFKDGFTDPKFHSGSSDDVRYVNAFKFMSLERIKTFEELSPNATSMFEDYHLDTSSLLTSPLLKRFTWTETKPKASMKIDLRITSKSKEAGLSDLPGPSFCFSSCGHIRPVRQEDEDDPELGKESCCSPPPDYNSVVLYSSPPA

Substance: Recombinant human VEGF165 (from UniProt P15692 27-191) (ligand)
- migration of rat CSMC (Transwell, 4 hr); optimal VEGF concentration: 10 ng/mL
- proliferation of rat CSMC (CellTiter-96, OD490nm, 3 days); optimal VEGF concentration: 12.5 ng/mL

Source: patent US20030096747A1
